Experimental findings from patent US20190367631A1 (Regeneron, published 2019) are described below.

Assay [1] concerns the target T1, full length human MSR1 with a C-terminal Myc tag, on HEK293.Myc.hMSR1 cells (human, UniProt P21757 1-451).
T1 sequence (looked up): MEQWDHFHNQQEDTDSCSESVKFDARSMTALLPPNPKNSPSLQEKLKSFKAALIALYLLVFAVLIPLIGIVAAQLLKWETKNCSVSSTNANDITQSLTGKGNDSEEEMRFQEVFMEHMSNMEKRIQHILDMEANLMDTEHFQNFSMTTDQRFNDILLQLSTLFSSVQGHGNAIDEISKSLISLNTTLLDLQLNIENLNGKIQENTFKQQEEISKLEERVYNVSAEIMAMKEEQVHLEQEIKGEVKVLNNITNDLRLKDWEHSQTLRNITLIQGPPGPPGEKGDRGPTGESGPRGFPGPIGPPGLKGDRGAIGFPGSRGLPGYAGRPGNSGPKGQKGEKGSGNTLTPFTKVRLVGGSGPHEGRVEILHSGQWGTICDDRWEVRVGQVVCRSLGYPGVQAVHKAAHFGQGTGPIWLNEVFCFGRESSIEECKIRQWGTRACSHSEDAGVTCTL
Kind of assay: cell-based or functional assay.

The target in assay [2] is T2, human MSR1 extracellular domain expressed with a N-terminal nonahistidine tag (His9-hMSR1); R&D Systems, Cat … (human, UniProt P21757 77-451).
T2 construct: extracellular domain; Bought reagent; also called His-hMSR1; 9xHis-hMSR1
T2 sequence: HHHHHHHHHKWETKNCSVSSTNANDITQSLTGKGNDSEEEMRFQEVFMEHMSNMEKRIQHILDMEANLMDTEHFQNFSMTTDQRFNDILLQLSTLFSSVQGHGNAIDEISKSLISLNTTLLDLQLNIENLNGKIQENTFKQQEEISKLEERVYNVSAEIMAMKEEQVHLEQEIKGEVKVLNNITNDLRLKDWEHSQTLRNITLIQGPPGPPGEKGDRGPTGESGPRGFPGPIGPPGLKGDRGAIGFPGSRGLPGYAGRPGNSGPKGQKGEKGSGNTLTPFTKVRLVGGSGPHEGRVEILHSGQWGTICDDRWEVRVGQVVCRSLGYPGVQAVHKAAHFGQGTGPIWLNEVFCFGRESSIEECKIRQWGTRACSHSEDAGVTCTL
Nature of the assay: SPR Biacore T200, 25 C, antibody captured by anti-human Fc, His9-hMSR1 injected. (SPR reads the build-up and loss of mass on a sensor chip optically.)
Protocol: All binding studies were performed in 10 mM HEPES, 300 mM NaCl, 3 mM EDTA, and 0.05% v/v Surfactant Tween-20, pH 7.4 (HBS-ET) running buffer at 25° C.
(§1) The association rate (kₐ) and dissociation rate (kd) were determined by fitting the real-time binding sensorgrams to a 1:1 binding model with mass transport limitation using Scrubber 2.0c curve-fitting software. Binding dissociation equilibrium constant (KD) and dissociative half-life (t½) were calculated from the kinetic rates as:

Assay [3] has as its target T3, human MSR1 extracellular domain expressed with a N-terminal nonahistidine tag (His9-hMSR1); R&D Systems, Cat … (human, UniProt P21757 77-451).
T3 construct: extracellular domain; also called His-hMSR1; 9xHis-hMSR1; not shown: N-terminal nonahistidine tag
T3 sequence (looked up): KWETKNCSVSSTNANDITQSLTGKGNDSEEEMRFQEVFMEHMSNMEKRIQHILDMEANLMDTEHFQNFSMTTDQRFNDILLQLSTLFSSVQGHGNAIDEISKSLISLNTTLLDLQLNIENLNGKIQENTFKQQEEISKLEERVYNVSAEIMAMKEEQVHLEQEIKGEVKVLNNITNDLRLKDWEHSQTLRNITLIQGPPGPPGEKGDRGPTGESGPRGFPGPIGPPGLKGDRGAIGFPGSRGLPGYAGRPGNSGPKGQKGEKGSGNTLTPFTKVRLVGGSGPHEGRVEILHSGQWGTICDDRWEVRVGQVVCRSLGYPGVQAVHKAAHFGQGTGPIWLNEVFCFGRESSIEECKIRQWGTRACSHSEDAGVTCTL
Nature of the assay: SPR Biacore, 25 C, antibody captured.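 Note: rates from 1:1 fit with mass transport limitation of real-time sensorgrams, HEPES-buffered saline with EDTA and Tween-20 at pH 7.4, KD and t½ derived from the kinetic rates.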

In assay [4] the target is T4, monkey MSR1 extracellular domain expressed with a N-terminal hexahistidine-myc-myc tag (HMM-mfMSR1) (monkey (Macaca fascicularis)).
T4 chain: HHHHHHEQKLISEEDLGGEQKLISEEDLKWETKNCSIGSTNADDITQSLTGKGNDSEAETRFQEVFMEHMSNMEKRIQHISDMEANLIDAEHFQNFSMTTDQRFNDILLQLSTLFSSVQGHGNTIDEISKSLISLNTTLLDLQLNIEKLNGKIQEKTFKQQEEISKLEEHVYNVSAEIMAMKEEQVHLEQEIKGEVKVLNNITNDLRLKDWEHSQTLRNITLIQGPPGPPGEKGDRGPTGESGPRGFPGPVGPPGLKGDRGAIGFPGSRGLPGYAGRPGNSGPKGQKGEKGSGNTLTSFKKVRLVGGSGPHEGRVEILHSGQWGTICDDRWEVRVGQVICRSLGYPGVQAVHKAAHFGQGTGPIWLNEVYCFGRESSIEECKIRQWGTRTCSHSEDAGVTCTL
Kind of assay: SPR Biacore, 25 C, antibody captured.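 Note: rates from 1:1 fit with mass transport limitation of real-time sensorgrams, HEPES-buffered saline with EDTA and Tween-20 at pH 7.4, KD and t½ derived from the kinetic rates.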
Protocol: (§2) Binding affinities and kinetic constants of human anti-MSR1 antibodies for different MSR1 reagents were determined by real-time surface plasmon resonance (Biacore 4000). All binding studies were performed in 10 mM HEPES, 150 mM NaCl, 3 mM EDTA, and 0.05% v/v Surfactant Tween-20, pH 7.4 (HBS-ET) running buffer at 25° C. and 37° C.
as §1

Assay [5] has as its target T3, human MSR1 extracellular domain …. Kind of assay: SPR Biacore, 37 C, antibody captured.
Protocol: as §2, §1
Assay [6] deals with T4, monkey MSR1 extracellular domain …. Nature of the assay: SPR Biacore, 37 C, antibody captured.
Protocol: as §2, §1

B1: H2aM21235N (antibody, mouse IgG2a, V domains shown)
VH: EVQLVESGGGLVQPGGSLRLSCAASGFTFSDHYMDWVRQAPGKGLEWVGRTRNKANSYTTEYAASVSGRFTISRDDSKNSLYLQMNSLKTEDTAVYYCTRAGIIGTLFDYWGQGTLVTVSS
VL: DIQMTQSPSSLSASVGDRVTITCRASQIIGRYLNWFQQKPGKVPKLLIYAASSLQRGVPSRFSGSGSGTDFTLTISSLQPEDFATYYCQQSYNTPPITFGQGTRLEIKR
As to B1, in assay [1], the “% Inhibition of Dil-Acetylated LDL uptake” value was determined as 24%, the “% Inhibition of Dil-Oxidized LDL uptake” value is 64% and the “IC50 of Dil-Acetylated LDL uptake inhibition” value is > 100 nM.

B2: H1xH29273P2 (antibody, V domains shown)
VH: QVQLVESGGGVVQSGRSLRLSCAAAGFTFSNYGMHWVRQAPGKGLEWVALMSFDGSDKYYADSVKGRFTISRDNSKNTLYLQMNSLRAEDTALYYCAKGYDFWSGYWDYWGQGTLVTVSS
VL: not shown
notes: the prefix H1xH is not explained; captured by anti-human Fc
For the molecule B2, in assay [2], the dissociation constant (Kd) (in general, the free concentration of one partner at which half of the binding sites on the other are occupied at equilibrium, for simple one-to-one binding) turned out to be 93 nM; the koff (as a rule, the rate constant with which the complex falls apart) turned out to be 0.00763 s⁻¹; the kon – broadly, a measure of how fast the partners come together – is 82000 M⁻¹ s⁻¹; the t½ (as a rule, how long it takes for the measured level to halve) was found to be 1.5 min.

B3: H1H27761P-N297Q (antibody, human IgG1, V domains shown)
VH: EVQLVESGGDLVQPGGSLRLSCSASGFTFNIYAMSWVRQAPGKGLEWVSGISGSGGSTYYADSVKGRFTISRDNSKNTLYFQMNSLRVEDTAVYYCAKKISSSSYYYYAMDVWGQGTTVTVSS
VL: not shown
notes: human IgG1 Fc with N297Q (EU); also called H1H27761P2-N297Q
In assay [2], B3 displayed a Kd of 0.609 nM, a koff of 0.000362 s⁻¹, a kon of 595000 M⁻¹ s⁻¹ and a t½ of 31.9 min.

B4: H1H27761P-N297Q-LP1 (antibody, human IgG1, V domains shown)
VH: EVQLVESGGDLVQPGGSLRLSCSASGFTFNIYAMSWVRQAPGKGLEWVSGISGSGGSTYYADSVKGRFTISRDNSKNTLYFQMNSLRVEDTAVYYCAKKISSSSYYYYAMDVWGQGTTVTVSS
VL: not shown
modifications: LXR agonist linker-payload LP1 clicked to azido-PEG3-amine on Q295 and Q297 (EU) of the heavy chain constant region
notes: antibody-drug conjugate; human IgG1 Fc with N297Q (EU)
In assay [2], B4 yielded a Kd of 2.02 nM, a koff of 0.000511 s⁻¹, a kon of 253000 M⁻¹ s⁻¹ and a t½ of 22.6 min.

B5: H1H27761P-N297Q (antibody, V domains shown)
VH: EVQLVESGGDLVQPGGSLRLSCSASGFTFNIYAMSWVRQAPGKGLEWVSGISGSGGSTYYADSVKGRFTISRDNSKNTLYFQMNSLRVEDTAVYYCAKKISSSSYYYYAMDVWGQGTTVTVSS
VL: not shown
notes: Human IgG1 Fc with N297Q; tied by the numerical identifier; also called H1H27761P2-N297Q; H1H27761P2
With B5, the Kd came out at 1.63 nM in assay [3], 1.88 nM in assay [4], 3.26 nM in assay [5] and 2.32 nM in assay [6]. The koff amounted to 0.00051 s⁻¹ in assay [3], 0.000597 s⁻¹ in assay [4], 0.00222 s⁻¹ in assay [5] and 0.00214 s⁻¹ in assay [6]. Also, the kon in assay [3] amounted to 312000 M⁻¹ s⁻¹; in assay [4], 318000 M⁻¹ s⁻¹; in assay [5], 681000 M⁻¹ s⁻¹; in assay [6], 920000 M⁻¹ s⁻¹. The t½ was 23 min in assay [3], 19 min in assay [4], 5 min in assay [5] and 5 min in assay [6].

B6: H2aM21227N (antibody, mouse IgG2a, V domains shown)
VH: QVQLVQSGAEVKKPGASVKVSCKVSGYTLTELSIHWVRQVPGKGLEWMGGFDPEEGETIFAQEFRDRVTLTEDTSPDTAYMELSSLKSEDAAVYYCTTPRYCNNGICYDYWGQGTLVTVSS
VL: DIQMTQSPSSLSASVGDRVTITCRASQSISNYLNWYQQKPGKAPKLLIYTASSLQSGVPSRFSGSGSGTDFTLTISSLQTEDFATYYCQQSYSNFPITFGQGTRLEIKR
Consider B6, for which, in assay [1], the “% Inhibition of Dil-Acetylated LDL uptake” value turned out to be 62%, the “% Inhibition of Dil-Oxidized LDL uptake” value is 90%, the “IC50 of Dil-Acetylated LDL uptake inhibition” value is 3.7 nM and the “IC50 of Dil-Oxidized LDL uptake inhibition” value worked out at 3.1 nM.

B7: H1M21231N (antibody, V domains shown)
VH: EVQLVESGGGLVQPGGSLRLSCAASGFTFSDHYMDWVRQAPGKGLEWVGRTRNKANSHTTEYTASVTGRFTISRDDSRNSLYLQMNSLKTEDTAVYYCVRAGIIGTLFDYWGQGTLVTVSS
VL: DIQMTQFPSSLSASVGDRVTITCRASQSISSFLNWFQQKPGKAPKFLIYAASSLQSGVPSRFSGSGSGTDFTLTISSLQPEDFATYYCQQSYSSPPITFGQGTRLEIKR
As for B7, in assay [1], the “% Inhibition of Dil-Acetylated LDL uptake” value turned out to be 50%, the “% Inhibition of Dil-Oxidized LDL uptake” value was found to be 79%, the “IC50 of Dil-Acetylated LDL uptake inhibition” value is > 20 nM and the “IC50 of Dil-Oxidized LDL uptake inhibition” value turned out to be 3.7 nM.

B8: H1xH29282P2 (antibody, V domains shown)
VH: EVQLVESGGGLVQPGGSLRLSCAASGFTFSTYAMSWVRQAPGKGLEWVSTISGRSDITYFADSVKGRFTVSRDNSKTTLYLQMNSLRAEDTAVYYCATDDDLPLDYWGQGTLVTVSS
VL: not shown
notes: as for B2
Consider B8, for which, in assay [2], the Kd came to 43.7 nM, the koff was 0.00362 s⁻¹, the kon was 82800 M⁻¹ s⁻¹ and the t½ stood at 3.2 min.

B9: H2bM21234N (antibody, V domains shown)
VH: QVQLQESGPGLVKPSETLSLTCTVTGGSISRNYWSWIRQPPGKGLEWIGYIYYSGSIDYNPSLKSRVTISVDTSKNQFSLKLSSMTAADTAVYYCARDRWNWKYGMDVWGQGTTVIVSS
VL: EIVLTQSPGTLSLSPGERATLSCRASQTVRNNYLAWYHQKPGQAPRLLIYGASSRATGIPDRFSGSGSGTDFTLTISRLEPEDFTVYYCHQYGNSPWTFGQGTKMEIKR
As for B9, in assay [1], the “% Inhibition of Dil-Acetylated LDL uptake” value is 19%, the “% Inhibition of Dil-Oxidized LDL uptake” value was 61%, the “IC50 of Dil-Acetylated LDL uptake inhibition” value worked out at 1.8 nM and the “IC50 of Dil-Oxidized LDL uptake inhibition” value was found to be 4.5 nM.

B10: H1H27762P-N297Q (antibody, human IgG1, V domains shown)
VH: QVQLVQSGAEVKKPGSSVKVSCKASGGTFSRYDISWVRQAPGQGLEWMGGIIPIFGTSNYAQKFQGRVTITTDESTSTVYMELSSLRSEDTAVYYCARGGRYGWFDPWGQGTLVTVSS
VL: not shown
notes: human IgG1 Fc with N297Q (EU); also called H1H27762P2-N297Q
In assay [2], B10 registered a Kd of 1.38 nM, a koff of 0.00056 s⁻¹, an on-rate constant (kon) of 405000 M⁻¹ s⁻¹ and a t½ of 20.6 min.

B11: H1H27762P-N297Q-LP1 (antibody, human IgG1, V domains shown)
VH: QVQLVQSGAEVKKPGSSVKVSCKASGGTFSRYDISWVRQAPGQGLEWMGGIIPIFGTSNYAQKFQGRVTITTDESTSTVYMELSSLRSEDTAVYYCARGGRYGWFDPWGQGTLVTVSS
VL: not shown
modifications: LXR agonist linker-payload LP1 clicked to azido-PEG3-amine on Q295 and Q297 (EU) of the heavy chain constant region
notes: antibody-drug conjugate; human IgG1 Fc with N297Q (EU); also called H1H27762P2-LP1
In assay [2], B11 came in with a Kd of 1.29 nM, a koff of 0.000623 s⁻¹, a kon of 483000 M⁻¹ s⁻¹ and a t½ of 18.5 min.

B12: H1xH29283P2 (antibody, V domains shown)
VH: QVQLVQSGTEVKKPGSSVKVSCKASGGTFSRYTFSWVRQAPGQGLEWMGGIIPIFGTTNYAQKFQGRVTITTDESTSTVYMELSSLRSEDTAVYYCTRGGRYGWFDPWGQGTLVTVSS
VL: not shown
notes: as for B2
With B12, in assay [2], binding was put at a Kd of 13.4 nM, the koff worked out at 0.00185 s⁻¹, the kon was found to be 139000 M⁻¹ s⁻¹ and the t½ came out at 6.2 min.

B13: H1H27766P-N297Q-LP1 (antibody, human IgG1, V domains shown)
VH: EVQLVESGGGLVQPGGSLRLSCAASGFTFSSFAMSWVRQAPGKELEWVSSISGRGGSTYYADSVRGRFTISRDNSKITLYLQMNSLRAEDTAVYYCAKDIVFRYTSSAYWYFDLWGRGTLVTVSS
VL: not shown
modifications: LXR agonist linker-payload LP1 clicked to azido-PEG3-amine on Q295 and Q297 (EU) of the heavy chain constant region
notes: antibody-drug conjugate; human IgG1 Fc with N297Q (EU); also called H1H27766P2-LP1
On to B13, for which, in assay [2], the Kd is 0.0649 nM, the off-rate constant (koff) was determined as 2.7e-05 s⁻¹, the kon is 416000 M⁻¹ s⁻¹ and the t½ turned out to be 427 min.
